These results are taken from paper PMC10303064, “Sulfated Lactosyl Archaeol Archaeosome-Adjuvanted Vaccine Formulations Targeting Rabbit Hemorrhagic Disease Virus Are Immunogenic and Efficacious” (Vaccines, 2023).

This series deals with the molecule itself. Briefly: negative-stain transmission electron microscopy; purified RHDV2 VP60 protein alone adsorbed on glow-discharged formvar/carbon copper grids, stained with 1% uranyl acetate, imaged at 300 keV.

B1: RHDV2 VP60 capsid protein (natural protein)
chain: EGKARAAPQGETAGTATTASVPGTTTDGMDPGVVATTSVVTTENASTSIATAGIGGPPQQVDQQETWRTNFYYNDVFTWSVADAPGNILYTVQHSPQNNPFTAVLSQMYAGWAGGMQFRFIVAGSGVFGGRLVAAVIPPGIEIGPGLEVRQFPHVVIDARSLEPVTITMPDLRPNMYHPTGNPGLVPTLVLSVYNNLINPFGGSTSAIQVTVETRPSEDFEFVMIRAPSSKTVDSISPADLLTTPVLTGVGTDNRWNGEIVGLQPVPGGFSTCNRHWNLNGSTFGWSSPRFAAIDHDGGNASFPGSSSSNVLELWYASAGSATDNPISQIAPDGFPDMSFVPFSGSTIPTAGWVGFGGIWNSNNGAPFVTTMQAYELGFATGAPSNPQPTTTTSGAQIVAKSIYGVANGINQTTAGLFVMASGVISTPNSSAITYTPQPNRIVNAPGTPAAAPIGKNTPIMFASVVRRTGDINAEAGSTNGTQYGAGSQPLPVTVGLSLNNYSSALMPGQFFVWQLNFASGFMELGLSVDGYFYAGTGALATLIDLSELVDIRPVGPRPSTSTLVYNLGGTTNGFSYV
notes: VP60 capsid protein of rabbit hemorrhagic disease virus 2 (RHDV2); the tag was removed after purification; After TEV cleavage a single G of the ENLYFQG site probably stays in front of E2 (surmised); Self-assembles into virus-like particles of ~30 nm; also called RHDV2 VLP; RHDV2 capsid protein; source: Baculovirus expression system (GenScript), purified, tag removed; not shown: His6, N-terminal, …
As to B1, the binding result is given as “binds”.
